Source: patent publication US20100144636A1, “PEPTIDES DERIVED FROM RAS-P21 AND USES THEREFOR” (THE RESEARCH FOUNDATION OF STATE UNIVERSITY OF NEW YORK, priority 2008, published 2010)

How the values were obtained:
[1] = test system: insulin-induced oocyte maturation; assay: Insulin-induced oocyte maturation (activated wild-type ras-p21); type: cell-based, Xenopus laevis; settings: oocytes induced to mature with insulin
Excerpt: (§1) The Applicants have synthesized both of the inventive peptides, referred to as PNC-7 and PNC-2, and assayed them for their abilities to block oncogenic ras-p21 induction of maturation of Xenopus laevis oocytes. Injection of oncogenic, but not wild-type ras-p21, into these oocytes induce oocyte maturation, i.e., completion of the second meiotic division, as measured by germinal vesicle membrane breakdown (GVBD). Insulin also induces oocyte maturation in a manner that requires activation of endogenous wild-type ras-p21.

[2] = test system: oncogenic (Val 12-containing) ras-p21-induced oocyte maturation; assay: Oncogenic ras-p21-induced oocyte maturation (GVBD); type: cell-based, Xenopus laevis; settings: injected/co-injected with oncogenic ras-p21 into oocytes
Excerpt: as §1

Molecule | inhibition of insulin-induced oocyte maturation [1] | inhibition of oncogenic ras-p21-induced oocyte maturation [2]
MKP-1T4: MAPK phosphatase that de-activates this kinase (protein, UniProt P28562 1-367, looked up) Dual specificity protein …: MVMEVGTLDAGGLRALLGERAAQCLLLDCRSFFAFNAGHIAGSVNVRFSTIVRRRAKGAMGLEHIVPNAELRGRLLAGAYHAVVLLDERSAALDGAKRDGTLALAAGALCREARAAQVFFLKGGYEAFSASCPELCSKQSTPMGLSLPLSTSVPDSAESGCSSCSTPLYDQGGPVEILPFLYLGSAYHASRKDMLDALGITALINVSANCPNHFEGHYQYKSIPVEDNHKADISSWFNEAIDFIDSIKNAGGRVFVHCQAGISRSATICLAYLMRTNRVKLDEAFEFVKQRRSIISPNFSFMGQLLQFESQVLAPHCSAEAGSPAMAVLDRGTSTTTVFNFPVSIPVHSTNSALSYLQSPITTSPSC | considerably less effect | completely blocks
GST-pi: glutathione-S-transferase, pi isozyme, selective inhibitor of JNK-induced phosphorylation of jun (protein, UniProt P09211 2-210, looked up) Glutathione S-transferase P: PPYTVVYFPVRGRCAALRMLLADQGQSWKEEVVTVETWQEGSLKASCLYGQLPKFQDGDLTLYQSNTILRHLGRTLGLYGKDQQEAALVDMVNDGVEDLRCKYISLIYTNYEAGKDDYVKALPGQLKPFETLLSQNQGGKTFIVGDQISFADYNLLDLLLIHEVLAPGCLDAFPLLSAYVGRLSARPKLKAFLASPEYVNLPINGNGKQ | no effect | complete inhibition of oocyte maturation
